Source: publication PMC10449523, “A polysaccharide utilization locus from Chitinophaga pinensis simultaneously targets chitin and β-glucans found in fungal cell walls” (mSphere, 2023)

Columns and labels:
Experiment in all cases: fluorescent release of 4-methylumbelliferone (chitinase assay kit CS1030)
Format in all cases: biochemical, Chitinophaga pinensis
Conditions in all cases: kit manufacturer's conditions
[1] = substrate: CC(=O)N[C@H]1[C@H](Oc2ccc3c(C)cc(=O)oc3c2)O[C@H](CO)[C@@H](O[C@@H]2O[C@H](CO)[C@@H](O[C@@H]3O[C@H](CO)[C@@H](O)[C@H](O)[C@H]3NC(C)=O)[C@H](O)[C@H]2NC(C)=O)[C@@H]1O
Source text: fluorescent release of 4-methylumbelliferone (chitinase assay kit CS1030) on […]

[2] = substrate: CC(=O)N[C@H]1[C@H](Oc2ccc3c(C)cc(=O)oc3c2)O[C@H](CO)[C@@H](O[C@@H]2O[C@H](CO)[C@@H](O[C@@H]3O[C@H](CO)[C@@H](O)[C@H](O)[C@H]3NC(C)=O)[C@H](O)[C@H]2NC(C)=O)[C@@H]1O; remark: listed apart in the source
Source text: fluorescent release of 4-methylumbelliferone (chitinase assay kit CS1030) on CpChiAC-CBM5

[3] = substrate: CC(=O)N[C@H]1[C@H](Oc2ccc3c(C)cc(=O)oc3c2)O[C@H](CO)[C@@H](O[C@@H]2O[C@H](CO)[C@@H](O[C@@H]3O[C@H](CO)[C@@H](O)[C@H](O)[C@H]3NC(C)=O)[C@H](O)[C@H]2NC(C)=O)[C@@H]1O; remark: listed apart in the source
Source text: fluorescent release of 4-methylumbelliferone (chitinase assay kit CS1030) on CpChiB

[4] = substrate: CC(=O)N[C@H]1[C@H](Oc2ccc3c(C)cc(=O)oc3c2)O[C@H](CO)[C@@H](O[C@@H]2O[C@H](CO)[C@@H](O[C@@H]3O[C@H](CO)[C@@H](O)[C@H](O)[C@H]3NC(C)=O)[C@H](O)[C@H]2NC(C)=O)[C@@H]1O; remark: listed apart in the source
Source text: fluorescent release of 4-methylumbelliferone (chitinase assay kit CS1030) on CpChiB-CBM6

B1: CpChiAC (Chitinophaga pinensis DSM 2588) (protein)
chain: KVVVGYWQNWNLASAPYIRLRDVDSRYNVIEVAFGTTSSDLSTVNFTPEGTTVADFKADIATLQAQGRKVLLSLGGETGTLVINTEANKQAFISSMKNLLDSYNFDGFDLDIEGGTSLQLNNGDNNFMAPTTPKVVNLIAAAKEIISYRKAQGKNCLLTMAPETYYVQTAYGATYSPLVGAYLPIIYGLRNELSWIQPQLYNTGSVMGLDNKVYNSTTADFIVSMTEMLLQGFPVSGTSQTFPALREDQVAFGLPAAPGAAGSGYTAPAEVKKALNYLTKGQSYGGTYVIRKAAGYPGLRGIMTWSVNWDKVNNSEFAANYYPYFFGT
notes: C-terminal His6 tag (pET21a), E. coli BL21(DE3)
Km [1]: 220 ± 3 µM
kcat [1]: 2.6587 ± 0.035 s⁻¹
kcat/Km [1]: 11800 M⁻¹ s⁻¹

B2: CpChiAC-CBM5 (Chitinophaga pinensis DSM 2588) (protein)
chain: KVVVGYWQNWNLASAPYIRLRDVDSRYNVIEVAFGTTSSDLSTVNFTPEGTTVADFKADIATLQAQGRKVLLSLGGETGTLVINTEANKQAFISSMKNLLDSYNFDGFDLDIEGGTSLQLNNGDNNFMAPTTPKVVNLIAAAKEIISYRKAQGKNCLLTMAPETYYVQTAYGATYSPLVGAYLPIIYGLRNELSWIQPQLYNTGSVMGLDNKVYNSTTADFIVSMTEMLLQGFPVSGTSQTFPALREDQVAFGLPAAPGAAGSGYTAPAEVKKALNYLTKGQSYGGTYVIRKAAGYPGLRGIMTWSVNWDKVNNSEFAANYYPYFFGTTPGNQSPVVSITSPASGASFTAPASITITASASDADGSIAKVEFYNGATKLGQATAAPYSYTWTNVAAATYSLTAVATDNAGAVTTSAAVSVTVNGTGGNTCDGIAAWSATIAYNGSQQVVYNGKIYTAKWWTQGDQPDTHSGADQVWAYVRDCGGSNPGNQAPTVSITSPSAGASFSAPATVTIQATAADADGTIAKVEFYNGNTKLGEVTASPYSYTWGNVAAGAYSITAVATDNGSKSTTSAAVAIQVGSGNTGNCAGVAAYEPFPKVYNQGDKVVYNGVLYESQSNGLYNVTPGTADWWWKPLGACGAAARVAVVSPEPDGVNADSKLVVFPNPLTGTVLKVQINAAQGEKVLIELWSTNGNAILRKQIVAGAKGQQTVDLDVSQVPAGSWILKTSNQQSGRKSAAKVIRL
notes: as for B1
Km [2]: 290 ± 0.2 µM
kcat [2]: 3.0285 ± 0.0383 s⁻¹
kcat/Km [2]: 10600 M⁻¹ s⁻¹

B3: CpChiB (Chitinophaga pinensis DSM 2588) (protein)
chain: QFKVVGYMPSWSGSVSAIQYSKLTHINYAFALPTSTGGLQPIENPSKLSSLVSSGHANGVKVLIAIGGWNNGDDGAFESLAANATYRTNFVNNVMNFVNQYGLDGVDMDWEYPDAGASANNYLALMQQLSTALHNNGKLLTAAVVGTGGASILNGVFNVVDFLNLMAYDYNNYEHSTYTYASQSLSYWVGRGLPASKAILGVPFYARPSWNSYATLLANGANPNSDYFGSDYYNGLPTIRSKTNLAFDQGGGIMMWELSQDATGANSLLSAIYQVKLDR
notes: as for B1
Km [3]: 240 ± 10 µM
kcat [3]: 2.199 ± 0.148 s⁻¹
kcat/Km [3]: 8850 M⁻¹ s⁻¹

B4: CpChiB-CBM6 (Chitinophaga pinensis DSM 2588) (protein)
chain: QFKVVGYMPSWSGSVSAIQYSKLTHINYAFALPTSTGGLQPIENPSKLSSLVSSGHANGVKVLIAIGGWNNGDDGAFESLAANATYRTNFVNNVMNFVNQYGLDGVDMDWEYPDAGASANNYLALMQQLSTALHNNGKLLTAAVVGTGGASILNGVFNVVDFLNLMAYDYNNYEHSTYTYASQSLSYWVGRGLPASKAILGVPFYARPSWNSYATLLANGANPNSDYFGSDYYNGLPTIRSKTNLAFDQGGGIMMWELSQDATGANSLLSAIYQVKLDRTGTNPPTGSTLIQAENYTSMSGVQVEATTDAGGGSNVGYIETGDWLAYANINFPTSGAYKVEYRVASQSTGGQLSLDLNSGAIVLGYLNVPVTGGWQTWTTISHNVNVTAGTYSLGVYAQSGGWNINWIRITKVAS
notes: as for B1
Km [4]: 120 ± 3 µM
kcat [4]: 1.005 ± 0.0533 s⁻¹
kcat/Km [4]: 8150 M⁻¹ s⁻¹
